# According to the supplement of paper PMC7877785:
# ± gives the uncertainty stated by the source.
# Experiment: self-splicing fitness, log relative to wild type (ln ratio); higher = more splicing; Tetrahymena group I intron in knt gene, E. coli kanamycin selection, DiMSum; sequences stand for … in CUCUCU…GGAGGGAAAAGUUAUCAGGCAUGCACCUGGUAGCUAGUCUUUAAACCAAUAGAUUGCAUCGGUUUAAAAGGCAAGACCGUCAAAUUGCGGGAAAGGGGUCAACAGCCGUUCAGUACCAAGUCUCAGGGGAAACUUUGAGAUGGCCUUGCAAAGGGUAUGGUAAUAAGCUGACGGACAUGGUCCUAACCACGCAGCCAAGUCCUAAGUCAACAGAUCUUCUGUUGAUAUGGAUGCAGUUCACAGACUAAAUGUCGGUCGGGGAAGAUGUAUUCUUCUCAUAAGAUAUAGUCGGACCUCUCCUUAAUGGGAGCUAGCGGAUGAAGUGAUGCAACACUGGAGCCGCUGGGAACUAAUUUGUAUGCGAAAGUAUAUUGAUUAGUUUUGGAGUACUCGUGGUCG
# Summary of the method: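 A randomised library covering all eight P1ex-region intron nucleotides was built with the intron in the knt kanamycin-resistance gene on pET-22b(+) and held in E. coli BL21(DE3). Cells were grown overnight at 37°C or 30°C on LB agar, with or without 25 μg/mL kanamycin, plus 100 μg/mL carbenicillin, 50 μM IPTG and 0.2% rhamnose, and pooled colonies were amplicon-sequenced on an Illumina HiSeq 2500. DiMSum fitness is the error-weighted combination of wild-type-normalised replicate fold changes, kanamycin versus none.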
Sequence,self-splicing fitness (ln) (37 °C),self-splicing fitness (ln) (30 °C)
CUCGAGCAAUAUUACGCUGU,-2.66 ± 0.44,–
CUCGAGCAAUAUUACGGACU,-1.95 ± 0.26,-2.35 ± 0.19
CUCGAGCAAUAUUACGGCGA,-2.61 ± 0.36,-3.88 ± 0.46
CUCGAGCAAUAUUACGGCUG,-1.94 ± 0.29,-3.82 ± 0.42
CUCGAGCAAUAUUACGUAAA,–,-3.8 ± 0.34
CUCGAGCAAUAUUACGUAGG,-0.804 ± 0.15,-1.11 ± 0.11
CUCGAGCAAUAUUACGUAGU,-2.18 ± 0.21,-3.91 ± 0.26
CUCGAGCAAUAUUACGUGUA,-3.35 ± 0.22,-2.89 ± 0.12
CUCUAGCAAUAUUACGACCU,–,-2.94 ± 0.3
CUCUAGCAAUAUUACGAGGA,-1.59 ± 0.17,-2.32 ± 0.19
CUCUAGCAAUAUUACGAGUG,-1.09 ± 0.15,-1.62 ± 0.14
CUCUAGCAAUAUUACGCAGG,-3.04 ± 0.47,-3.35 ± 0.26
CUCUAGCAAUAUUACGCAUC,-2.64 ± 0.36,–
CUCUAGCAAUAUUACGCCGG,-1.92 ± 0.45,-2.98 ± 0.31
CUCUAGCAAUAUUACGCGGU,-2.59 ± 0.29,-3.25 ± 0.26
CUCUAGCAAUAUUACGCGUA,-3.32 ± 0.24,-4.1 ± 0.27
CUCUAGCAAUAUUACGCGUG,-3.01 ± 0.19,-3.84 ± 0.22
CUCUAGCAAUAUUACGCUAA,-2.26 ± 0.4,-2.65 ± 0.35
CUCUAGCAAUAUUACGCUCG,-1.68 ± 0.23,-3.05 ± 0.25
CUCUAGCAAUAUUACGGAUA,-2.71 ± 0.22,-3.57 ± 0.24
CUCUAGCAAUAUUACGGGAC,-3.65 ± 0.46,-2.77 ± 0.19
CUCUAGCAAUAUUACGGGUC,-2.21 ± 0.18,-5.03 ± 0.34

Sequence,self-splicing fitness (ln) (37 °C),self-splicing fitness (ln) (30 °C)
CUCUAGCAAUAUUACGGUAA,-2.14 ± 0.21,-2.38 ± 0.24
CUCUAGCAAUAUUACGUACG,-1.4 ± 0.17,-2.5 ± 0.23
CUCUAGCAAUAUUACGUCGA,-0.879 ± 0.19,-4.25 ± 0.42
CUCUAGCAAUAUUACGUCGG,-1.57 ± 0.18,-3.22 ± 0.22
CUCUAGCAAUAUUACGUGCA,–,-2.34 ± 0.43
CUGAAGCAAUAUUACGAAAU,-2.38 ± 0.25,-3.78 ± 0.27
CUGAAGCAAUAUUACGACCC,–,-2.58 ± 0.38
CUGAAGCAAUAUUACGAGAU,-1.57 ± 0.15,-2.63 ± 0.15
CUGAAGCAAUAUUACGAGCA,-2.01 ± 0.2,-3.59 ± 0.19
CUGAAGCAAUAUUACGAGGU,-2.41 ± 0.17,-3.28 ± 0.11
CUGAAGCAAUAUUACGAUGG,0.123 ± 0.095,-0.0919 ± 0.065
CUGAAGCAAUAUUACGCAAG,0.142 ± 0.18,-0.812 ± 0.12
CUGAAGCAAUAUUACGCACC,–,-2.27 ± 0.34
CUGAAGCAAUAUUACGCGGA,-1.7 ± 0.2,-3.45 ± 0.16
CUGAAGCAAUAUUACGCGUA,-1.98 ± 0.26,-4.36 ± 0.36
CUGAAGCAAUAUUACGCUCG,-0.613 ± 0.087,-0.21 ± 0.086
CUGAAGCAAUAUUACGCUUG,-1.79 ± 0.14,-2.33 ± 0.13
CUGAAGCAAUAUUACGGUAC,-2.71 ± 0.26,-2.82 ± 0.18
CUGAAGCAAUAUUACGGUCU,-2.24 ± 0.27,-4.07 ± 0.36
CUGAAGCAAUAUUACGGUGU,-2.95 ± 0.12,-3.3 ± 0.1
CUGAAGCAAUAUUACGUAAG,0.0174 ± 0.086,-0.797 ± 0.08
CUGAAGCAAUAUUACGUAUU,-2.85 ± 0.3,-3.86 ± 0.22
